In paper PMC9542132:

B1: CdvC from Metallosphaera sedula (enzyme)
chain: MSAQVMLEEMARKYAIAAVRADKEGRREDAINNYKKAIEVLTQIVTLYPDMVARNAYEQMINEYKKRLETLNQMVPEGGEETEKAEEDIVMKEKPKVTLNEIVGLEDVKEALKEAVVYPSKRPDLFPLGWPRGILLYGPPGCGKTMIAAAVANELDSEFIHVDAASIMSKWLGEAEKNVAKIFKTARELSKKENKPAIIFIDELDALLASYTSEVGGEARVRNQFLKEMDGLADKNEISKVYVIGATNKPWRLDEPFLRRFQKRIYITLPDKAHRLELLKHYSSKVKLDPNVNLEELAELTDGYTASDIRDIVQSAHMRVVKEMFEKNLQEPRAINMDDFREVLKVRKPSVNQDMLKAYAAWHEKFKAL

What was measured:
[1] = target: CdvB1 from Metallosphaera sedula, MBP tag cleaved off with 3C protease (Metallosphaera sedula); assay: co-sedimentation; 1 uM MBP-CdvB1 with 0.1 uM 3C protease, 50 mM HEPES pH 7.4, 50 mM NaCl, 5 mM MgCl2, Ficoll 41.25 mg/mL, overnight at 4 °C; 0.6 uM CdvC added, nucleotide or buffer, 2 min at 50 °C; 140 000 g 30 min at 4 °C; pellet and supernatant on SDS/PAGE
[2] = target: CdvB1 from Metallosphaera sedula, MBP tag cleaved off with 3C protease (Metallosphaera sedula)
[3] = target: CdvB1 from Metallosphaera sedula, MBP tag cleaved off with 3C protease (Metallosphaera sedula); remark: listed apart in the source

Row | Molecule | filament-to-monomer ratio (with CdvC and ADP or ATPγS, no hydrolysable nucleotide) [1] | ATP consumed by CdvC (0.1 uM) in 25 min at 50 °C with CdvB1 filaments (1 uM) against CdvC alone [2] [fold] | filament-to-monomer (pellet-to-supernatant) ratio of CdvB1 in the sedimentation assay after CdvC with ATP, 2 min at 50 °C [3]
1 | CdvB1 from Metallosphaera sedula, MBP tag cleaved off with 3C protease (natural protein) | 2 | – | –
2 | B1 | – | 8 | 0.1
